Where two headings read alike, the source gives them in different places.
B1: HA-R399E (HA-tagged PKM2 mutant R399E expressed in SW480 cells) (enzyme)
chain: not shown
B2: Recombinant PKM2 mutant R399E (enzyme)
chain: not shown

What was measured:
SEC [1] = target: the molecule itself; assay: SEC
SEC [2] = target: the molecule itself; assay: SEC; remark: listed apart in the source

Protein	stoichiometry N (SEC [1])	stoichiometry N (SEC [2])
B1	2	
B2		2

Source: PMC3299833 (Molecular Cell, 2012)
